Measured values as given in patent US12016922B2, “Stabilized aqueous antibody compositions” (Arecor Limited, priority 2012, dated 2024).

Tests used:
[1] = test system: rituximab; assay: Aggregation of rituximab formulations on storage, % HMWS by size exclusion chromatography; type: physicochemical; conditions: trehalose 200 mM, pH 6.5, 40° C.; for effect on the rate of formation of HMWS: compared with background formulation without oligomer; for % HMWS 16 weeks / % HWMS 0 weeks: rituximab 100 mg/ml; for effect on the rate of aggregation: Example 5: rituximab 140 mg/ml; for % HMWS 0 weeks / % HMWS 12 weeks / % HMWS 26 weeks: rituximab 140 mg/ml
Procedure: (§1) Formulations of protein therapeutics, rituximab and certolizumab pegol, were prepared either in the absence or in the presence of various oligomers of ethyleneimine. The following products were used as the starting material: MabThera® (rituximab) and Cimzia® (certolizumab pegol). The compositions of the two products are as follows:
(§2) In order to prepare the formulations for testing, it was necessary to remove the original excipients and replace them with the selected excipients. The following procedure was used to prepare the formulations for testing: Original compositions were removed from the manufacturer's container and dialysed in 3.5 kDa cut-off dialysis cassettes (Thermo Pierce) at 2-8° C., using three changes for a minimum of 4 hours in each, including one overnight incubation.
(§3) The background solutions, containing the new excipients and adjusted to the required pH, were added to the dialysed proteins to achieve the required concentration of excipients and the protein in the final composition. The formulated samples were placed into storage at 40° C. or at 5° C., and stability was tested after a given period of time. The stability of the proteins was tested in compositions containing oligomers of ethyleneimine and compared to a ‘Control formulation’ with identical background in the absence of the oligomers.
(§4) The amount of high molecular weight species is measured using a 300×7.8 mm S3000 (or equivalent) size-exclusion column with a guard column. The mobile phase is potassium phosphate pH 6.5, with a flow rate of 0.4 ml/min, injection volume of 1 μl and detected at 210 and 280 nm. The results are expressed as % high molecular species (HMWS), i.e. sum of all peak areas corresponding to aggregated protein over the sum of all protein-related peaks on the chromatogram. […] However, within a given time-point the samples are tested using the column in the same condition, so the values generated within the time-point represent a very good indication of the relative stability of the protein in the compositions tested.
Rituximab was formulated at 100 mg/ml in the following background solution: EDTA (0.2 mM), methionine (1 mM), histidine (10 mM). The pH was adjusted to 6.5.
Rituximab was formulated at 100 mg/ml in the following background solution: EDTA (0.2 mM), methionine (1 mM), histidine (10 mM), in the presence of arginine (80 mM) as a tonicity modifier. The pH of all formulations was adjusted to 6.5. For comparison, the formulation of commercial liquid rituximab product (‘Original formulation’ also with rituximab at 100 mg/ml) was also included.
Rituximab was formulated at 100 mg/ml in the following background solution: EDTA (0.2 mM), methionine (1 mM) histidine (10 mM) and trehalose (200 mM). The pH was adjusted to 6.5.
Rituximab was formulated at 140 mg/ml in the following background solution: EDTA (0.2 mM), methionine (1 mM), histidine (10 mM) and trehalose (200 mM). The pH was adjusted to 6.5.

[2] = test system: Certolizumab pegol; assay: Aggregation of certolizumab pegol formulations on storage, % HMWS by size exclusion chromatography; type: physicochemical; conditions: Certolizumab pegol 100 mg/ml, 40° C.
Procedure: as §1, §2, §3, §4
Certolizumab pegol was formulated at 100 mg/ml in histidine buffer (10 mM, pH 6.0) in the presence of either NaCl (150 mM) or 1,2-propandiol (200 mM) as tonicity modifiers.

[3] = histidine 10 mM pH 6.0, 1,2-propanediol 200 mM, additive 3 mg/ml
[4] = histidine 10 mM pH 6.0, 1,2-propanediol 200 mM, additive 35.9 mg/ml
[5] = histidine 10 mM pH 6.0, NaCl 150 mM, additive 3 mg/ml
[6] = histidine 10 mM pH 6.0, NaCl 150 mM, additive 35.9 mg/ml

Row | Molecule | effect on the rate of formation of HMWS ([1]; Example 4: rituximab 100 mg/ml) | % HMWS 16 weeks ([1]; additive 0.2 mg/ml) | % HWMS 0 weeks ([1]; additive 0.2 mg/ml) | % HMWS 16 weeks ([1]; additive 1 mg/ml) | % HWMS 0 weeks ([1]; additive 1 mg/ml) | % HMWS 16 weeks ([1]; additive 5 mg/ml) | % HWMS 0 weeks ([1]; additive 5 mg/ml) | effect on the rate of aggregation [1] | % HMWS 0 weeks ([1]; additive 1 mg/ml) | % HMWS 12 weeks ([1]; additive 1 mg/ml) | % HMWS 0 weeks ([1]; additive 5 mg/ml) | % HMWS 12 weeks ([1]; additive 5 mg/ml) | % HMWS 26 weeks ([1]; additive 5 mg/ml) | also measured
1 | 2K mPEG valerate PEI800 [Compound (4), reference compound] | reduced the rate of formation of HMWS in a dose dependent manner | 2.57% | 0.69% | 1.06% | 0.79% | 0.93% | 0.69% |  |  |  |  |  |  | 
2 | 5K mPEG Propyl Triethylenetetramine Ethanol [Compound (2)] |  |  |  |  |  |  |  | reduction in the rate of aggregation | 0.40% | 1.17% | 0.35% | 0.97% | 3.60% | % HMWS 0 weeks ([1]; additive 0.2 mg/ml): 0.25%; % HMWS 12 weeks ([1]; additive 0.2 mg/ml): 1.31%; % HMWS 26 weeks ([1]; additive 0.2 mg/ml): 4.79%; % HMWS 26 weeks ([1]; additive 1 mg/ml): 4.44%; % HMWS 0 weeks [2, 3]: 0.64%; % HMWS 8 weeks [2, 3]: 2.02%; % HMWS 0 weeks [2, 4]: 0.81%; % HMWS 8 weeks [2, 4]: 2.47%; % HMWS 0 weeks [2, 5]: 0.66%; % HMWS 8 weeks [2, 5]: 3.32%; % HMWS 0 weeks [2, 6]: 0.79%; % HMWS 8 weeks [2, 6]: 2.39%
3 | NCCNCCN [Diethylenetriamine] | considerably reduce the rate of formation of HMWS in a dose dependent manner | 0.94% | 0.81% | 0.70% | 0.70% | 0.67% | 0.79% | considerable, dose-dependent reduction in the aggregation rate | 0.38% | 0.24% | 0.37% | 0.29% | 1.83% | rate of aggregation compared with Original formulation ([1]; Example 4: rituximab 100 mg/ml): lower; % HMWS 0 weeks ([1]; additive 0.02 mg/ml): 0.37%; % HMWS 12 weeks ([1]; additive 0.02 mg/ml): 0.91%; % HMWS 26 weeks ([1]; additive 0.02 mg/ml): 4.09%; % HMWS 0 weeks ([1]; additive 0.1 mg/ml): 0.38%; % HMWS 12 weeks ([1]; additive 0.1 mg/ml): 0.35%; % HMWS 26 weeks ([1]; additive 0.1 mg/ml): 0.89%
